Measurements from US20240075137A1 (COMPUGEN, published 2024).
Where two headings read alike, the source gives them in different places.

Assays:
human PVRIG on cells [1] = target: T1, human PVRIG on cells (human, UniProt Q6DKI7 1-326); experiment: FACS on Jurkat cells pre-incubated with CHA.7.518.1 (unconjugated)
T1 construct: whole, on cells; over-expressed on HEK cells or endogenous on Jurkat and CD8 T cells; also called hPVRIG; HEK hPVRIG cells
T1 sequence (looked up): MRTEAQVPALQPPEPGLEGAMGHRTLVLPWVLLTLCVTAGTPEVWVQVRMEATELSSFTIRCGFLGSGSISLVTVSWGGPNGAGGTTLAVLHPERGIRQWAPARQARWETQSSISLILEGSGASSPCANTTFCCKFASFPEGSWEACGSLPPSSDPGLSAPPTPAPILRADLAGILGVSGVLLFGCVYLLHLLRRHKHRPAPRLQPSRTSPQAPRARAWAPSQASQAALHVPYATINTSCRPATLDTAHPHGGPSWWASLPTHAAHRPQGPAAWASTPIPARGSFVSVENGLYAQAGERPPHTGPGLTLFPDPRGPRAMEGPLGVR

human PVRIG on cells [2] = target: T1, human PVRIG on cells; experiment: FACS on Jurkat cells pre-incubated with Isotype (unconjugated)
[3] = target: T2, cynomolgus PVRIG on cells (cynomolgus, UniProt A0A2K5WVV8 41-322); experiment: flow cytometry titration, expi cPVRIG cells
T2 construct: whole, on cells; also called cPVRIG; expi cPVRIG cells
T2 sequence: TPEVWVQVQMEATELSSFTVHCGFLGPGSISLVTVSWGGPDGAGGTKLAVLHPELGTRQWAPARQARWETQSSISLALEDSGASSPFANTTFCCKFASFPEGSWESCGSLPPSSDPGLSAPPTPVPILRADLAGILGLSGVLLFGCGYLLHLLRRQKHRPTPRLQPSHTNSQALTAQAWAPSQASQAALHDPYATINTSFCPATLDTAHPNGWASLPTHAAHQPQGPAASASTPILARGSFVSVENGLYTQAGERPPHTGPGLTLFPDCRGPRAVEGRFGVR

human PVRIG on cells [4] = target: T1, human PVRIG on cells; experiment: flow cytometry titration, HEK hPVRIG cells
human PVRIG on cells [5] = target: T1, human PVRIG on cells; experiment: flow cytometry titration, Jurkat cells
human PVRIG on cells [6] = target: T1, human PVRIG on cells; experiment: FACS competition: PVRL2 mFc binding to HEK hPVRIG cells
human PVRIG on cells [7] = target: T1, human PVRIG on cells; experiment: FACS on Jurkat cells pre-incubated with CHA.7.538.1.2 (unconjugated)
PVRIG Fc = target: T3, PVRIG Fc (UniProt Q6DKI7 41-171, limits assumed, biotinylated (Example 5)); experiment: FACS competition: biotinylated PVRIG Fc (33 nM) binding to HEK cells with endogenous PVRL2
T3 construct: also called biotinylated PVRIG Fc protein; PVRIG-Fc-fusion protein
T3 sequence (looked up): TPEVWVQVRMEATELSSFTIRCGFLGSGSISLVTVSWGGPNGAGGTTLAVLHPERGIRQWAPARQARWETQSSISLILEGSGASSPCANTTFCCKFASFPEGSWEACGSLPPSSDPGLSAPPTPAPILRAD

human PVRIG on cells [8] = target: T1, human PVRIG on cells; experiment: FACS on HEK hPVRIG cells; column head 'Kd', unit nM from legend paragraph 75
human PVRIG on cells [9] = target: T1, human PVRIG on cells; experiment: FACS, HEK hPVRIG cells (HEK OE)
human PVRIG on cells [10] = target: T1, human PVRIG on cells; experiment: flow cytometry, HEK hPVRIG cells
human PVRIG on cells [11] = target: T1, human PVRIG on cells; experiment: flow cytometry, Jurkat cells
[12] = target: T4, PVRIG (FACS-based competition assay of FIGS. 7 and 15) (Homo sapiens, UniProt Q6DKI7); experiment: FACS-based competition assay of PVRIG blocking; format and competitor not given
T4 construct: made because the format of the assay is only described in U.S. Ser. No. 15/048,967; also called human PVRIG
T4 sequence (receptor, looked up): T3 sequence (looked up)

[13] = target: T4, PVRIG (FACS-based competition assay of …); experiment: as above; remark: listed apart in the source
human PVRIG on cells [14] = target: T1, human PVRIG on cells; experiment: FACS on Jurkat cells; column head 'Kd', unit nM from legend paragraph 75
mPVRL2 HIS = target: T5, mPVRL2 HIS (mouse, UniProt P32507 32-351, limits assumed); experiment: ELISA: soluble receptor Fc titrated on immobilized mPVRL2 HIS
T5 construct: also called mPVRL2 protein; Soluble PVRL2 HIS protein
T5 sequence (looked up): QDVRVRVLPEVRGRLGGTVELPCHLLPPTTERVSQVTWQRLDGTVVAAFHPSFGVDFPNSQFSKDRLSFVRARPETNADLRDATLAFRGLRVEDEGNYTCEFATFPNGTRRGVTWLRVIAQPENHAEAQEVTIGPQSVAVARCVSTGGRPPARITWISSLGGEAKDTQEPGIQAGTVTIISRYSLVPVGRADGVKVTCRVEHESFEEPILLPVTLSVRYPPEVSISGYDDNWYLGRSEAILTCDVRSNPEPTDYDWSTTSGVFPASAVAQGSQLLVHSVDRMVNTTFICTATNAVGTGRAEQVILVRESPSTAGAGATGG

human TIGIT on cells [15] = target: T6, human TIGIT on cells (human, UniProt Q495A1 22-141); experiment: FACS titration of AF647-labelled mAb on human effector memory CD8+ T cells, Donor 334
T6 construct: also called Expi293 human TIGIT over-expressing cells
T6 sequence: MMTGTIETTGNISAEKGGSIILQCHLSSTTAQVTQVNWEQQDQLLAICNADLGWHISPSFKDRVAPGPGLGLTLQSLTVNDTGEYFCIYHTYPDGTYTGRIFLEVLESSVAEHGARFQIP

Mouse TIGIT-His = target: T7, Mouse TIGIT-His (mouse, UniProt P86176); experiment: SPR (ProteOn), mAb captured, mouse TIGIT monomer injected; BM29 as hIgG4
T7 construct: also called mouse TIGIT monomer (prepared in-house)
T7 sequence (soluble monomer with His tag, looked up): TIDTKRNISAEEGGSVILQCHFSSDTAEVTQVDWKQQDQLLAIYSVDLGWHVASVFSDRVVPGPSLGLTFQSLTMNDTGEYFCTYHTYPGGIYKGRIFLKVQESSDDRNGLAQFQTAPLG

human TIGIT on cells [16] = target: T6, human TIGIT on cells; experiment: FACS blocking of human PVR-m2aFc binding to human TIGIT OE Expi293 cells; binding site concentration; n=1
[17] = target: T8, human TIGIT ECD with C-terminal polyhistidine tag (human, UniProt Q495A1 22-141); experiment: SPR (ProteOn), mAb captured, human TIGIT injected; BM29 as hIgG4
T8 construct: in-house or Sino Biological; also called hTIGIT-HIS; human TIGIT-HIS
T8 sequence: T6 sequence

human TIGIT on cells [18] = target: T6, human TIGIT on cells; experiment: FACS titration of AF647-labelled mAb on human effector memory CD8+ T cells, Donor 322
Cyno TIGIT-His = target: T9, Cyno TIGIT-His; experiment: SPR (ProteOn), Cyno TIGIT-His
T9 construct: also called cyno TIGIT monomer (prepared in-house); C-terminal HIS-tagged cyno TIGIT ECD recombinant protein
T9 sequence (ECD with C-terminal His tag, as listed by the source): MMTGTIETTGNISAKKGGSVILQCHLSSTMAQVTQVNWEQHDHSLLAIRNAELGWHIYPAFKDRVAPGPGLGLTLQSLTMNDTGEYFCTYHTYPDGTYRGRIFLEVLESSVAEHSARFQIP

[19] = target: T8, human TIGIT ECD with C-terminal …; experiment: SPR (ProteOn), Human TIGIT-His
human TIGIT on cells [20] = target: T6, human TIGIT on cells; experiment: FACS titration on human TIGIT OE Expi293 cells, binding site concentration; ± 95% CI; 'Fit: Excellent'
cyno TIGIT on cells = target: T10, cyno TIGIT on cells (cynomolgus macaque); experiment: FACS titration on cyno TIGIT OE Expi293 cells, binding site concentration; ± 95% CI; 'Fit: Good/Excellent'
T10 construct: whole, on cells; also called Expi293 cyno TIGIT over-expressing cells

human TIGIT on cells [21] = target: T6, human TIGIT on cells; experiment: FACS titration of AF647-labelled mAb on human effector memory CD8+ T cells, Donor 321
human TIGIT on cells [22] = target: T6, human TIGIT on cells; experiment: FACS blocking of human PVR-m2aFc binding to human TIGIT OE Expi293 cells; binding site concentration; n=2

B1: CHA.7.538.1.2.H4(S241P) (antibody, human IgG4 S228P, kappa, V domains shown)
VH: QVQLVQSGAEVKKPGASVKVSCKASGYAFTNYLIEWVRQAPGQGLEWIGVINPGSGGIYYAQKFQGRVTMTADTSTSTVYMELSSLRSEDTAVYYCARSETHDTWFAYWGQGTLVTVSS
VL: DIQMTQSPSSLSASVGDRVTITCKASQSVRIAVAWFQQKPGKAPKALIYLASTRHTGVPSRFSGSGSGTDFTLTISSVQPEDFATYYCLQHWNYPYTFGQGTKLEIKR
notes: humanized, human IgG4 with S241P
% binding relative to maximum signal (human PVRIG on cells [1]): 32% | % binding relative to maximum signal (human PVRIG on cells [2]): 100% | Kd [3]: 0.58 nM | Kd (human PVRIG on cells [4]): 0.86 nM | Kd (human PVRIG on cells [5]): 0.59 nM | IC50 (human PVRIG on cells [6]): 2.53 nM | % binding relative to maximum signal (human PVRIG on cells [7]): 7% | IC50 (PVRIG Fc): 16.1 nM

B2: CHA.7.518 (antibody, V domains shown)
VH: EVQLQQSGPELVKPGASVKISCKASGYTFTDYNINWVKQSHGKSLEWIGYIYPYIGGSGYNQKFKSKATLSADNPSSTAYMELRSLTSEDSAVYYCAREDKTARNAMDYWGQGTPVTVSS
VL: DIQMTQSPASLSVSVGETVTIICRVSENIYSNLAWYQQKQGKSPQLLVYEATNLAEGVPSRFSGSGSGTQYSLKINSLQSEDFGSYYCQHFWGTPYTFGGGTKLEIK
Kd (human PVRIG on cells [8]): 0.36 nM | EC50 (human PVRIG on cells [9]): 0.36 nM | fold higher affinity than CPA.7.021 (human PVRIG on cells [10]): ~8 fold | fold higher affinity than CPA.7.021 (human PVRIG on cells [11]): ~13 fold | IC50 [12]: 23.1 nM | IC50 [13]: 23.1 nM | Kd (human PVRIG on cells [14]): 0.24 nM

B3: TIGIT Fc (Fc fusion, UniProt P86176 29-148, looked up)
fusion chain: T7 sequence (soluble monomer with His tag, looked up)
notes: receptor part of an Fc fusion; Soluble receptor Fc tested on immobilized mPVRL2 HIS
binding result (mPVRL2 HIS): no binding (tested: about 200 nM)

B4: BM29 hIgG4 (antibody, V domains shown)
VH: QVHLQESGPGLVKPSETLSLTCTVSGGSVSSGIYYWSWIRQPPGKGLEWIGYIYYSGSTNYNPSLKSRVTISVDTSKNQFSLKLSSVTAADTAVYYCARDYYVSGNYYNVDYYFFGVDVWGQGTTVTVSS
VL: EIVLTQSPATLSLSPGERATLSCRASQSVSSYLAWYQQKPGQAPRLLIYDASNRATGIPARFSGSGSGTDFTLTISSLEPEDFAVYYCQQRSNWPPLFTFGPGTKVDIKR
notes: benchmark anti-human TIGIT antibody, human IgG4 with S241P; also called BM29-H4; US2016/0176963A1 Clone 22G2 as hIgG4
Kd (human TIGIT on cells [15]): 0.59 nM | binding result (Mouse TIGIT-His): no binding (tested: 92.9 nM mouse TIGIT) | IC50 (human TIGIT on cells [16]): 1 nM | Kd [17]: 0.015 nM | Kd (human TIGIT on cells [18]): 0.91 nM | Kd (Cyno TIGIT-His): 1.54 nM | Kd [19]: 0.011 nM | Kd (human TIGIT on cells [20]): 1.53 nM | Kd (cyno TIGIT on cells): 1.67 nM | Kd (human TIGIT on cells [21]): 0.88 nM | IC50 (human TIGIT on cells [22]): 0.5 nM
